These results are taken from the RNAGym collection of RNA variant scans (doi:10.7554/elife.80360).

Sequences and labels used below:
B1: HDV Ribozyme (parent)
chain: GGCCGGCAUGGUCCCAGCCUCCUCGCUGGCGCCGGCUGGGCAACAUUCCGAGGGGACCGUCCCCUCGGUAAUGGCGAAUGGGACCCA

In the data set the parent is B1. Briefly: self-cleavage, relative activity (ratio to wild type); higher = more cleavage; co-transcriptional.
Take G39U U60A: the self-cleavage came out at 0.623.
Turning to G39A G54C, the self-cleavage stood at 0.369.
As to G39A G54U, the self-cleavage amounted to 0.517.
As for G39A A71U, the figure is 0.383.
As for G38A C64A, the figure is 0.0678.
For G38A C64U the value was 0.225; for G38A G39U, 0.0665.
As for G39A G53U, the self-cleavage turned out to be 0.504.
For G40A G74C the value was 0.485; for G40A G74U, 0.732.
For G40C C57U the value was 0.354; for G40C C57A, 0.295; for G40C C57G, 0.36.
For G38A U47A the value was 0.0594; for G38A U47G, 0.116; for G39A G81A, 0.0898.
Take U37C G38C: the self-cleavage worked out at 0.237.
For the variant G39U G74A, the self-cleavage was 0.669.
For the variant G39U G74C, the self-cleavage stood at 0.23.
For the variant G39U G74U, the self-cleavage came out at 0.382.
Regarding U37C G80A, the self-cleavage is 0.267.
For U37C G80C the value was 0.288; for G38U G59A, 0.181; for G38U G59C, 0.264.
For G40A G55C the value was 1.01; for G39C G40A, 0.695.
In the case of G40C A43G, the self-cleavage came to 0.136.
As to G38U A77U, the self-cleavage is 0.0845.
As for G38U A77C, the figure is 0.0554.
As for G39C A51U, the figure is 0.219.
For G39A C49A the value was 0.573; for G38C C49G, 0.156; for G39U G67C, 0.746.
As to G39U G67A, the self-cleavage was determined as 0.698.
U37G A77U: the self-cleavage stood at 0.138.
For G39A G74U the value was 0.176; for U37C, 1.03.
For U37G the value was 0.131; for G39A A45G, 0.629.
As to G39C G74A, the self-cleavage came to 0.36.
As for G40C A42G, the figure is 0.196; as for G40A A51G, 0.749; as for U37C G76U, 1.3.
For the variant U37G G76A, the self-cleavage was found to be 0.185.
In the case of G38A A71U, the self-cleavage worked out at 0.102.
For the variant G38C A43C, the self-cleavage was found to be 0.26.
In the case of G40A A71G, the self-cleavage is 0.748.
For U37C G67U the value was 0.974.
Take U37C G67C: the self-cleavage was 0.989.
As for G39U C84A, the figure is 0.495; as for G39U C84G, 0.348.
As to U37C A83G, the self-cleavage stood at 0.76.
For the variant G38A C44G, the self-cleavage is 0.0449.
For G39A G76A the value was 0.421; for U37G C57G, 0.145; for G39C C64A, 0.0369.
For G38C U79C the value was 0.0264.
In the case of U37C A87U, the self-cleavage amounted to 1.14.
Take U37G C63A: the self-cleavage worked out at 0.123.
As for G40A A43C, the figure is 0.601; as for G40A G50A, 0.884.
G38U G76U: the self-cleavage was 0.237.
Consider G38A C75A, for which the self-cleavage was found to be 0.115.
As for G38U C84A, the self-cleavage is 0.174.
As to G38U A71C, the self-cleavage amounted to 0.225.
Consider G39C C48A, for which the self-cleavage was 0.125.
As for G38A C85U, the figure is 0.128; as for G38A C85A, 0.104; as for U37G C61A, 0.0875.
As for U37G C61G, the figure is 0; as for G39C G80U, 0.101.
As for U37G G67A, the figure is 0.0692; as for G39C G82A, 0.0308.
With G39C G82U, the self-cleavage came out at 0.0791.
For G39C G53C the value was 0.
For G39C G53U the value was 0.133; for G38A A83C, 0.151.
With G38A A83G, the self-cleavage came to 0.142.
As for U37C U79C, the figure is 0.193.
For the variant G38A A43U, the self-cleavage is 0.111.
As for G38C C44U, the figure is 0.104; as for G39U C63G, 0.507; as for G39U C48G, 0.862.
For G39U C48A the value was 0.658; for G39U C48U, 0.594.
For G38C G74C the value was 0.148; for U37C G68A, 0.864; for G38U G74C, 0.115.
Turning to G38U G74U, the self-cleavage is 0.14.
For G39U C61U the value was 0.58; for U37C C48U, 1.14.
For the variant G39C A71C, the self-cleavage is 0.0978.
With G40A U69G, the self-cleavage was determined as 0.712.
On to G40A G54C, for which the self-cleavage worked out at 0.926.
For G38U C61G the value was 0.086.
Take G39U G40A: the self-cleavage worked out at 0.807.
As for G39U G40C, the self-cleavage stood at 0.451.
As to U37C G55A, the self-cleavage was 1.
As for G39A C62A, the figure is 0.554; as for G39A C62G, 0.129.
As for G38C G52A, the figure is 0.322; as for U37G G39A, 0.0811.
Take G39C A45G: the self-cleavage was 0.0923.
G40A G52U: the self-cleavage was determined as 0.683.
For the variant G40A G52A, the self-cleavage was 0.858.
As for G39A A70G, the figure is 0.483; as for G39U C58U, 0.716; as for G38A U79C, 0.161.
With G40C C49G, the self-cleavage is 0.261.
G39C C86G: the self-cleavage amounted to 0.259.
In the case of G39C C86U, the self-cleavage was found to be 0.208.
For G39C G73U, the self-cleavage was 0.106.
In the case of G40A C41U, the self-cleavage came to 0.87.
As for U37G A78G, the figure is 0; as for U37G G73U, 0.0923; as for G40A A87U, 1.02.
For G38A U69C the value was 0.31.
Take G39U C86G: the self-cleavage was found to be 0.784.
As for G39A G80C, the self-cleavage was 0.145.
As for U37G A56G, the figure is 0.0665.
For U37G G38A the value was 0.111; for U37G G38U, 0.155.
Consider G39C G50A, for which the self-cleavage is 0.246.
As for U37G C64U, the figure is 0.
For G38C U65G the value was 0.142.
For G38C U65C the value was 0.391; for G39U C41G, 0.46.
U37G U65A: the self-cleavage turned out to be 0.101.
For G39U G73A the value was 0.249; for G38C G55U, 0.193.
Regarding G40A G73U, the self-cleavage turned out to be 0.554.
On to U37C C64A, for which the self-cleavage came to 0.831.
As for G38U G50A, the self-cleavage amounted to 0.218.
As for G38U G50U, the figure is 0.352; as for G39C G55A, 0.211; as for G39C G55U, 0.305.
In the case of G40A U72G, the self-cleavage was determined as 0.437.
As for G38U C85A, the figure is 0.205; as for G40A G76U, 0.843.
Regarding G40A G76C, the self-cleavage worked out at 0.947.
Regarding G39U A45G, the self-cleavage stood at 0.743.
For G40A C86G the value was 1.01.
For G40A C86U the value was 0.989.
As to U37G U60C, the self-cleavage was 0.256.
For G39A C57G the value was 0.591; for G39C G59A, 0.23; for G39C G59C, 0.162.
As for G38U C44G, the self-cleavage worked out at 0.0652.
As for G39C G81U, the figure is 0.143; as for G40C A45G, 0.32.
Consider G40C A45U, for which the self-cleavage came out at 0.211.
As for G39A G50A, the figure is 0.445.
On to G39U G50C, for which the self-cleavage was 0.598.
As for G38U G52C, the figure is 0.169; as for G38U G52U, 0.273.
Regarding G38A G80C, the self-cleavage came to 0.117.
For the variant U37C C49G, the self-cleavage was 1.21.
Turning to G38C A77U, the self-cleavage came to 0.128.
For G38C A77C the value was 0.177.
For G38U A51C the value was 0.246; for G38U A51G, 0.32.
As for G40A C66A, the figure is 0.808; as for G39C A42C, 0.244.
As for G38C A78G, the self-cleavage was 0.0639.
On to G38A G53A, for which the self-cleavage is 0.113.
As for G39U U69G, the figure is 0.635; as for U37G C62G, 0.0791.
